The supplement of paper PMC9876800

System: peptide library, one residue held at a place counted from the S/T acceptor
Assay: relative phosphorylation of the sub-library (ratio to the mean residue at this position); higher = residue favoured
Method in brief: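 Relative sub-library phosphorylation is a ratio to the mean residue at the same position. Purified recombinant kinases were incubated under kinase-specific conditions with biotinylated degenerate peptide sub-libraries, each fixing one residue at one position around a central Ser/Thr, using 50 μM peptide and 50 μM ATP spiked with γ-32P-ATP for 90 min. Spots captured on streptavidin membranes were phosphorimaged and quantified by densitometry.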

AURKC, construct: Full length, human, sequence (Q9UQB9 whole entry, looked up): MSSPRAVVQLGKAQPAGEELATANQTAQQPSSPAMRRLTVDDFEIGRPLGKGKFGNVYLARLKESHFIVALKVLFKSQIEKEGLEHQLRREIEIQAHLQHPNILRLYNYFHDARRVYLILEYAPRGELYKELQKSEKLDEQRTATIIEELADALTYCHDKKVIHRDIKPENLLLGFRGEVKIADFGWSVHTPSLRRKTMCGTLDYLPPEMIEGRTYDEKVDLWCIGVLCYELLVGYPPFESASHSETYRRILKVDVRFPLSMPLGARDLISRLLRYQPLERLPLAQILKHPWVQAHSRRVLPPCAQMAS
BMP2K, construct: aa37-345, human, sequence (Q9NSY1 37-345, looked up): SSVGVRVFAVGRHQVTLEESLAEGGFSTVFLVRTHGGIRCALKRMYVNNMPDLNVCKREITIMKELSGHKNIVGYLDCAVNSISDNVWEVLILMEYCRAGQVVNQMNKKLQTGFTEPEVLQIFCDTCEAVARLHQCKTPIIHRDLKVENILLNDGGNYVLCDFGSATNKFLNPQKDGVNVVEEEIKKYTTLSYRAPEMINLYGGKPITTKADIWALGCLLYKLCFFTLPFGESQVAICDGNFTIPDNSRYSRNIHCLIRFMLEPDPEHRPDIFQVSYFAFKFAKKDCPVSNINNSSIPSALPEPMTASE
ALPK1, construct: aa1-474 and aa959-end, human, sequence (Q96QP1 1-474, looked up): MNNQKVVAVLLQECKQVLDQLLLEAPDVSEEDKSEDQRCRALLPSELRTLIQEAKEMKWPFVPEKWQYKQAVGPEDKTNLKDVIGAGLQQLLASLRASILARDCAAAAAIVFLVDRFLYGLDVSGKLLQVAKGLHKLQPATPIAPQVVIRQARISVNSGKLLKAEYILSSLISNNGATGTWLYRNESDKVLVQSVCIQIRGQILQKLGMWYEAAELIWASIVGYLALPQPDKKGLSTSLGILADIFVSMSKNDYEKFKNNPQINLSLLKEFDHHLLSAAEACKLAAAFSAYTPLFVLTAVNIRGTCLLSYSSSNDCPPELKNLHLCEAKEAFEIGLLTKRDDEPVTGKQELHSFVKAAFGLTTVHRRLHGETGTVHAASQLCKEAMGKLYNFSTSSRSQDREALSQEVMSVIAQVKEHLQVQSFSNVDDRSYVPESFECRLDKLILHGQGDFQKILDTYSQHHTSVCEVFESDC

ALPK1, construct: aa1-474 and aa959-end, human (from UniProt Q96QP1)
relative phosphorylation
Settings	at +1	at +2	at +3	at +4	at -1	at -2	at -3	at -4	at -5
A fixed	0.392	0.063	0.503	1.02	0.957	1.29	0.868	0.65	0.43
D fixed	0.704	0.889	1.31	1.21	2.26	1.87	2.74	2	1.61
E fixed	3.35	2.03	1.22	1.27	1.9	0.573	1.83	1.77	1.83
F fixed	0.991	1.09	1.36	1.05	0.862	0.626	0.757	1.02	0.92
G fixed	0.404	0.704	0.365	0.933	0.798	0.731	0.687	0.798	0.812
H fixed	1.15	1.07	1	1.37	0.779	0.466	1.21	1.24	0.763
I fixed	1.27	1.14	0.752	0.378	1.16	1.02	0.608	0.848	1.02
K fixed	0.774	1.49	1.08	1.09	1.13	0.599	0.905	1.31	0.94
L fixed	0.474	1.11	1.09	0.718	0.704	1.29	0.392	0.763	0.67
M fixed	1.63	1.38	1.49	0.671	0.979	1.13	0.9	0.651	1.14
N fixed	0.75	1.19	0.97	1.36	0.572	0.718	1.11	0.874	1.08
P fixed	0.39	1.01	0.781	1.16	0.805	1.54	0.952	1.02	0.971
Q fixed	1.01	0.617	0.852	0.914	0.933	1.31	0.826	0.758	1.16
R fixed	1.23	0.649	0.935	0.774	0.731	0.797	1.02	1.09	1.28
V fixed	0.557	1.08	1.06	0.914	0.569	1.09	0.694	0.547	0.996
W fixed	0.811	1.01	1.06	1.1	1.04	0.771	0.557	0.92	0.613
Y fixed	1.11	0.478	1.17	1.06	0.826	1.18	0.944	0.741	0.762
pThr fixed	0.485	1.34	1.32	1.94	1.71	1.9	2.27	1.42	1.5
pTyr fixed	1.74	1.33	1.73	2.97	9.01	0.489	1.53	1.85	1.83

AURKC, construct: Full length, human (from UniProt Q9UQB9)
relative phosphorylation
Settings	at +1	at +2	at +3	at +4	at -1	at -2	at -3	at -4	at -5
A fixed	1.01	1.38	1.08	0.973	0.816	0.333	0.832	1.25	1.46
D fixed	0.814	0.611	0.589	0.957	0.459	0.179	0.421	0.58	0.651
E fixed	0.755	0.417	0.466	0.681	0.394	0.167	0.36	0.562	0.554
F fixed	1.06	0.746	0.893	0.763	0.505	0.206	0.451	0.634	0.678
G fixed	1.37	2.03	1.6	1.25	0.672	0.399	1.06	1.33	1.63
H fixed	1.06	1.66	1.43	1.1	0.974	0.399	1.1	0.955	1.06
I fixed	0.852	0.592	0.605	0.684	0.406	0.25	0.402	0.623	0.63
K fixed	0.89	0.853	1.13	1.23	2.57	2.63	2.51	2.06	2.15
L fixed	1.15	0.694	0.863	0.792	0.811	0.251	0.392	0.601	0.632
M fixed	1.57	0.705	0.719	0.803	0.727	0.248	0.52	0.741	0.664
N fixed	1.29	1.23	1.25	1.2	0.73	0.304	0.919	0.856	1.05
P fixed	0.329	1.5	1.78	1.68	1.09	0.372	1.23	1.72	1.25
Q fixed	1.16	0.975	1.03	1.35	1.09	0.529	0.803	0.96	0.767
R fixed	1	0.962	1.08	1.13	3.72	10	4.34	2.18	1.47
V fixed	0.669	0.686	0.625	0.901	0.495	0.213	0.432	0.59	0.804
W fixed	1.08	1.03	0.961	0.859	0.526	0.233	0.674	0.69	0.852
Y fixed	0.931	0.928	0.906	0.647	1.01	0.25	0.55	0.673	0.719
pThr fixed	1.1	0.657	0.676	1.06	0.334	0.342	0.612	0.86	0.713
pTyr fixed	0.648	0.502	0.631	0.801	0.398	0.209	0.52	0.629	0.535

BMP2K, construct: aa37-345, human (from UniProt Q9NSY1)
relative phosphorylation
Settings	at +1	at +2	at +3	at +4	at -1	at -2	at -3	at -4	at -5
A fixed	0.537	1.05	0.882	0.9	0.668	0.84	1.54	1.11	0.639
D fixed	0.361	0.974	0.763	0.733	0.467	1.22	0.575	0.621	0.453
E fixed	0.338	0.938	0.68	0.806	0.428	0.942	0.684	0.871	0.45
F fixed	0.379	0.866	0.81	0.94	1.26	0.754	0.916	0.963	0.863
G fixed	10.2	0.959	1.4	0.987	0.76	0.579	0.812	1.04	0.565
H fixed	0.392	1.08	1.21	0.989	1.35	1	0.815	0.95	0.739
I fixed	0.351	0.716	0.716	0.769	0.852	0.713	1.26	1	1.92
K fixed	0.435	0.966	1.2	1.39	1.76	0.993	0.926	1.31	0.594
L fixed	0.349	0.699	0.841	0.801	1.17	0.96	0.901	1.15	1.39
M fixed	0.368	0.842	0.765	0.847	1.18	1.91	1.46	1.12	1.24
N fixed	0.46	1.62	1.28	1.06	0.717	1.17	0.843	0.845	0.61
P fixed	0.674	0.802	1.01	0.988	0.846	0.485	1.34	0.868	1.13
Q fixed	0.384	1.22	1.04	1.14	0.818	2.26	1.02	1.08	1.02
R fixed	0.605	1.37	1.51	1.54	1.36	1	1.03	1.29	1.55
V fixed	0.358	0.87	0.929	0.753	0.806	0.64	1.17	0.987	1.32
W fixed	0.431	1.06	0.963	1.26	0.984	0.676	0.832	0.81	0.794
Y fixed	0.414	0.964	1	1.1	1.58	0.872	0.897	0.977	1.73
pThr fixed	0.4	0.715	0.663	0.527	0.427	0.528	0.634	0.638	0.583
pTyr fixed	0.357	0.841	0.698	0.572	0.527	0.928	0.647	0.72	1.19
